T1: NCoA1 PAS-B domain 257-385 (nuclear coactivator 1) (UniProt Q15788 257-385)
T1 construct: Used unlabeled or 15N / 15N-13C labeled in the NMR samples
T1 sequence (looked up): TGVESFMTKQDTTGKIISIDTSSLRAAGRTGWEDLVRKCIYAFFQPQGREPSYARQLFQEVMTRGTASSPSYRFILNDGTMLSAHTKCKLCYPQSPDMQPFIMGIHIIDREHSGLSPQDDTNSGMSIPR


Assays:
NCoA1 (Homo sapiens) [1] = molecular target: NCoA1 (Homo sapiens) (UniProt Q15788); test: fluorescence polarization; conditions: cited from earlier work
NCoA1 (Homo sapiens) [2] = molecular target: NCoA1 (Homo sapiens) (UniProt Q15788); test: competitive fluorescence polarization; conditions: cited from earlier work
[3] = molecular target: T1, NCoA1 PAS-B domain 257-385 (nuclear …); test: crystal structure; X-ray structure of the NCoA-1 PAS-B domain in complex with the STAT6 783-814 peptide (PDB 5NWX); peptide added in 1.5 fold molar excess, complex purified by gel filtration (Superdex 75); conditions: both partners purified

Sequence of NCoA1 (Homo sapiens) (Q15788 2-1441): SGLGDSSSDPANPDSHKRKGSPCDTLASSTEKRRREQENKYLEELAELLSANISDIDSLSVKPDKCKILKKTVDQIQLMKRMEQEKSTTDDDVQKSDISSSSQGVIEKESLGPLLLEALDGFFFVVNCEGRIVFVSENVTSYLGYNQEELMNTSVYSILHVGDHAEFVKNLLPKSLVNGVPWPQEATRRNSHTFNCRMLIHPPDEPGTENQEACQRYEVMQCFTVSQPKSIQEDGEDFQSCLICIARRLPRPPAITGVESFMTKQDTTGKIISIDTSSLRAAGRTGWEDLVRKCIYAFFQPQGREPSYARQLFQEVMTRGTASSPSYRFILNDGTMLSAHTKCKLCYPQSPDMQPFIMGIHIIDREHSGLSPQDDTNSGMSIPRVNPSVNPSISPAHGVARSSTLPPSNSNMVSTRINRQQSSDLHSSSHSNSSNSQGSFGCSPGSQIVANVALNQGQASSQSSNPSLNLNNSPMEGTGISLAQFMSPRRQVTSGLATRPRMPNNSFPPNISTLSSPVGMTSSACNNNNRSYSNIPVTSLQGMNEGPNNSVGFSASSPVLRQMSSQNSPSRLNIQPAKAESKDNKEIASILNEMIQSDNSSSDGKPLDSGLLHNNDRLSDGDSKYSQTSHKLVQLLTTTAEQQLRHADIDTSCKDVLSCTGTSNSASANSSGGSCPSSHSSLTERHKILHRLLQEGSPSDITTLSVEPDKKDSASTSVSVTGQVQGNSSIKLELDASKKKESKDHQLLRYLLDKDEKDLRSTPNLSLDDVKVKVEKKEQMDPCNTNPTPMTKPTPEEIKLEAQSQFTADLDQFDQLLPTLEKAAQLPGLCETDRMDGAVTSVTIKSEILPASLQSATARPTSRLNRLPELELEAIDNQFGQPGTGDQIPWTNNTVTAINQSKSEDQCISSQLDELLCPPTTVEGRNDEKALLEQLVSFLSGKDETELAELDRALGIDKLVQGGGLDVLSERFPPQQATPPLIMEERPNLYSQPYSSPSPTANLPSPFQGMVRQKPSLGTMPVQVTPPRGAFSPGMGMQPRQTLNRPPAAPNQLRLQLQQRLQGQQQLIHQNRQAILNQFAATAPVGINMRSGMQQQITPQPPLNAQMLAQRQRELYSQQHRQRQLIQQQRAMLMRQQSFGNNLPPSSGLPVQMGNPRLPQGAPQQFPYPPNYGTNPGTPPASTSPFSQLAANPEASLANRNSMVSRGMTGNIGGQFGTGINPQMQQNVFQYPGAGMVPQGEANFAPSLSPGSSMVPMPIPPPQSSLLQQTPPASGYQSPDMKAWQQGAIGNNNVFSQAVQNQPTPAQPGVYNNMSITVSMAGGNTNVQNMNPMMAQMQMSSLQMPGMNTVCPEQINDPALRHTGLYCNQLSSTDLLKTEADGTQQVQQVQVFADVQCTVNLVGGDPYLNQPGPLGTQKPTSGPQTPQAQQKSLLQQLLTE

binding result [3] | Molecule | Kd (NCoA1 (Homo sapiens) [1]) [nM] | Ki (NCoA1 (Homo sapiens) [2]) [nM]
 | STAT6 783-814 (from UniProt P42226) | 40 | 40
 | STAT6 794-814 (from UniProt P42226) | 320 | 260
binds | GTWIGEDIFPPLLPPTEQDLTKLLLEGQGESG (peptide, UniProt P42226 783-814, looked up, The His7-tag probably left with the Z-tag (the Z-tag was removed on Ni-NTA resin after TEV cleavage); Used unlabeled or 15N / 15N-13C labeled in the NMR samples; source: produced recombinantly, purified (TEV cleavage, Ni-NTA, reversed phase HPLC); not shown: Z-tag, N-terminal, cleaved) [STAT6 peptide 783-814 (fragment of the STAT6 transactivation domain with the LXXLL motif)] |  | 

From article PMC5714956, “Insight into the molecular recognition mechanism of the coactivator NCoA1 by STAT6” (Scientific Reports, 2017)
